± gives the uncertainty stated by the source.

The labels stand for the following.
B1: Neutrophil cytosol factor 2, residues 456 to 514; numbered along this chain, P19878 (parent)
chain: LKKGSQVEALFSYEATQPEDLEFQEGDIILVLSKVNEEWLEGECKGKVGIFPKVFVEDC

In the series the parent is B1. The series is described as follows: abundance fitness (aPCA) (normalised: wild type 0, dead -1); higher = more abundant; growth selection in yeast, the domain comes from the species named. Particulars: Homo sapiens.
Turning to LKKGSQVEALFSYEATQPEDLEFQEGDIILVLYKVNEEWLEGECKGKVGIFPKVFVEDC [S33Y], the abundance fitness was -0.55 ± 0.15.

For the variant LKKGSQVEALFSYEATQPEDLEFQEGDIILVLDKVNEEWLEGECKGKVGIFPKVFVEDC [S33D], the abundance fitness was found to be 0.4 ± 0.072.

As for LKKGSQVEALFSYEATQPEDLEFQEGDIILVLGKVNEEWLEGECKGKVGIFPKVFVEDC [S33G], the abundance fitness is 0.378 ± 0.069.

As for LKKGSQVEALFSYEATQPEDLEFQEGDIILVLNKVNEEWLEGECKGKVGIFPKVFVEDC [S33N], the abundance fitness came to 0.147 ± 0.089.

For the variant LKKGSQVEALFSYEATQPEDLEFQEGDIILVLCKVNEEWLEGECKGKVGIFPKVFVEDC [S33C], the abundance fitness is -0.474 ± 0.13.

Consider LKKGSQVEALFSYEATQPEDLEFQEGDIILVLMKVNEEWLEGECKGKVGIFPKVFVEDC [S33M], for which the abundance fitness was -0.677 ± 0.41.

Regarding LKKGSQVEALFSYEATQPEDLEFQEGDIILVLHKVNEEWLEGECKGKVGIFPKVFVEDC [S33H], the abundance fitness was -0.596 ± 0.18.

Regarding LKKGSQVEALFSYEATQPEDLEFQEGDIILVLKKVNEEWLEGECKGKVGIFPKVFVEDC [S33K], the abundance fitness was determined as 0.213 ± 0.17.

LKKGSQVEALFSYEATQPEDLEFQEGDIILVLFKVNEEWLEGECKGKVGIFPKVFVEDC [S33F]: the abundance fitness was -0.291 ± 0.13.

As for LKKGSQVEALFSYEATQPEDLEFQEGDIILVLTKVNEEWLEGECKGKVGIFPKVFVEDC [S33T], the abundance fitness was -0.289 ± 0.18.

For LKKGSQVEALFSYEATQPEDLEFQEGDIILVLQKVNEEWLEGECKGKVGIFPKVFVEDC [S33Q], the abundance fitness is -0.111 ± 0.27.

Take LKKGSQVEALFSYEATQPEDLEFQEGDIILVLVKVNEEWLEGECKGKVGIFPKVFVEDC [S33V]: the abundance fitness was -0.091 ± 0.081.

Consider LKKGSQVEALFSYEATQPEDLEFQEGDIILVLRKVNEEWLEGECKGKVGIFPKVFVEDC [S33R], for which the abundance fitness stood at 0.59 ± 0.077.

For LKKGSQVEALFSYEATQPEDLEFQEGDIILVLIKVNEEWLEGECKGKVGIFPKVFVEDC [S33I], the abundance fitness was -0.34 ± 0.15.

Turning to LKKGSQVEALFSYEATQPEDLEFQEGDIILHLSKVNEEWLEGECKGKVGIFPKVFVEDC [V31H], the abundance fitness was -0.369 ± 0.14.

For the variant LKKGSQVEALFSYEATQPEDLEFQEGDIILLLSKVNEEWLEGECKGKVGIFPKVFVEDC [V31L], the abundance fitness came to 0.041 ± 0.11.

For LKKGSQVEALFSYEATQPEDLEFQEGDIILRLSKVNEEWLEGECKGKVGIFPKVFVEDC [V31R], the abundance fitness was -0.581 ± 0.16.

LKKGSQVEALFSYEATQPEDLEFQEGDIILWLSKVNEEWLEGECKGKVGIFPKVFVEDC [V31W]: the abundance fitness was -0.6 ± 0.45.

In the case of LKKGSQVEALFSYEATQPEDLEFQEGDIILYLSKVNEEWLEGECKGKVGIFPKVFVEDC [V31Y], the abundance fitness was -0.479 ± 0.13.

In the case of LKKGSQVEALFSYEATQPEDLEFQEGDIILNLSKVNEEWLEGECKGKVGIFPKVFVEDC [V31N], the abundance fitness is -0.092 ± 0.092.

As for LKKGSQVEALFSYEATQPEDLEFQEGDIILFLSKVNEEWLEGECKGKVGIFPKVFVEDC [V31F], the abundance fitness was -0.354 ± 0.13.

On to LKKGSQVEALFSYEATQPEDLEFQEGDIILTLSKVNEEWLEGECKGKVGIFPKVFVEDC [V31T], for which the abundance fitness is -0.482 ± 0.19.

Take LKKGSQVEALFSYEATQPEDLEFQEGDIILCLSKVNEEWLEGECKGKVGIFPKVFVEDC [V31C]: the abundance fitness was -0.418 ± 0.14.

On to LKKGSQVEALFSYEATQPEDLEFQEGDIILILSKVNEEWLEGECKGKVGIFPKVFVEDC [V31I], for which the abundance fitness came to 0.342 ± 0.077.

Turning to LKKGSQVEALFSYEATQPEDLEFQEGDIILGLSKVNEEWLEGECKGKVGIFPKVFVEDC [V31G], the abundance fitness stood at 0.001 ± 0.071.

In the case of LKKGSQVEALFSYEATQPEDLEFQEGDIILKLSKVNEEWLEGECKGKVGIFPKVFVEDC [V31K], the abundance fitness was -0.621 ± 0.48.

For the variant LKKGSQVEALFSYEATQPEDLEFQEGDIILPLSKVNEEWLEGECKGKVGIFPKVFVEDC [V31P], the abundance fitness was -0.046 ± 0.14.

Consider LKKGSQVEALFSYEATQPEDLEFQEGDIILVLSTVNEEWLEGECKGKVGIFPKVFVEDC [K34T], for which the abundance fitness came out at 0.4 ± 0.097.

Regarding LKKGSQVEALFSYEATQPEDLEFQEGDIILVLSEVNEEWLEGECKGKVGIFPKVFVEDC [K34E], the abundance fitness turned out to be 0.466 ± 0.14.

Consider LKKGSQVEALFSYEATQPEDLEFQEGDIILVLSMVNEEWLEGECKGKVGIFPKVFVEDC [K34M], for which the abundance fitness was -0.326 ± 0.2.

LKKGSQVEALFSYEATQPEDLEFQEGDIILVLSPVNEEWLEGECKGKVGIFPKVFVEDC [K34P]: the abundance fitness is -0.853 ± 0.4.

With LKKGSQVEALFSYEATQPEDLEFQEGDIILVLSNVNEEWLEGECKGKVGIFPKVFVEDC [K34N], the abundance fitness was -0.287 ± 0.13.

With LKKGSQVEALFSYEATQPEDLEFQEGDIILVLSWVNEEWLEGECKGKVGIFPKVFVEDC [K34W], the abundance fitness is -0.437 ± 0.31.

Turning to LKKGSQVEALFSYEATQPEDLEFQEGDIILVLSGVNEEWLEGECKGKVGIFPKVFVEDC [K34G], the abundance fitness is -0.822 ± 0.17.

As for LKKGSQVEALFSYEATQPEDLEFQEGDIILVLSLVNEEWLEGECKGKVGIFPKVFVEDC [K34L], the abundance fitness was -0.436 ± 0.14.

As for LKKGSQVEALFSYEATQPEDLEFQEGDIILVLSIVNEEWLEGECKGKVGIFPKVFVEDC [K34I], the abundance fitness is 0.456 ± 0.08.

Take LKKGSQVEALFSYEATQPEDLEFQEGDIILVLSCVNEEWLEGECKGKVGIFPKVFVEDC [K34C]: the abundance fitness was -0.242 ± 0.12.

As for LKKGSQVEALFSYEATQPEDLEFQEGDIILVLSSVNEEWLEGECKGKVGIFPKVFVEDC [K34S], the abundance fitness was -0.37 ± 0.1.

For the variant LKKGSQVEALFSYEATQPEDLEFQEGDIILVLSHVNEEWLEGECKGKVGIFPKVFVEDC [K34H], the abundance fitness was 0.059 ± 0.12.

LKKGSQVEALFSYEATQPEDLEFQEGDIILVLSRVNEEWLEGECKGKVGIFPKVFVEDC [K34R]: the abundance fitness is -0.47 ± 0.12.

As for LKKGSQVEALFSYEATQPEDLEFQEGDIILVLSVVNEEWLEGECKGKVGIFPKVFVEDC [K34V], the abundance fitness came out at 0.467 ± 0.071.

Turning to LKKGSQVEALFSYEATQPEDLEFQEGDIILVLSQVNEEWLEGECKGKVGIFPKVFVEDC [K34Q], the abundance fitness is -0.215 ± 0.27.

Take LKKGSQVEALFSYEATQPEDLEFQEGDIILVLSFVNEEWLEGECKGKVGIFPKVFVEDC [K34F]: the abundance fitness was -0.459 ± 0.13.

For the variant LKKGSQVEALFSYEATQPEDLEFQEGDIILVLSAVNEEWLEGECKGKVGIFPKVFVEDC [K34A], the abundance fitness was -0.359 ± 0.13.

On to LKKGSQVEALFSYEATQPEDLEFQEGDIILVLSDVNEEWLEGECKGKVGIFPKVFVEDC [K34D], for which the abundance fitness is -0.026 ± 0.11.
